B1: unnamed (protein)
chain: MAVMTPRRERSSLLSRALQVTAAAATALVTAVSLAAPAHAANPYERGPNPTDALLEASSGPFSVSEENVSRLSASGFGGGTIYYPRENNTYGAVAISPGYTGTEASIAWLGERIASHGFVVITIDTITTLDQPDSRAEQLNAALNHMINRASSTVRSRIDSSRLAVMGHSMGGGGTLRLASQRPDLKAAIPLTPWHLNKNWSSVTVPTLIIGADLDTIAPVATHAKPFYNSLPSSISKAYLELDGATHFAPNIPNKIIGKYSVAWLKRFVDNDTRYTQFLCPGPRDGLFGEVEEYRSTCPF
B2: unnamed (protein)
chain: MESQVRGGTRWKRFAVVMVPSVAATAAIGVALAQGALAASFSVSGQSFKVTAQELNGTGFSQYGAIDQGYTLSGEKTAHPVAVSVFDTARIQKMCQSVVTPNIPLLGSVSLTLTAGDSADPEKQVNAKNLYIDVEDLGADAEFTNIDIGVAGKDISQGPGMKAGEVQKKQANPYGFAQQAEKAKLTDVKQTAWATTAGTFKLPGLKMKLQTGTHECY
B3: unnamed (protein)
chain: MTHQIVTTQYGKIKGTTENGVHKWKGIPYAKPPVGQWRFKAPEPPEVWEDVLDATAYGPVCPQPSDLLSLSYAELPRQSEDCLYVNVFAPDTPSQNLPVMVWIHGGAFYLGAGSEPLYDGSKLAAQGEVIVVTLNYRLGPFGFLHMSSFDEAYSDNLGLLDQAAALKWVRENISAFGGDPNNVTVFGESAGGMSIAALLAMPAAKGLFQKAIMESGASRTMTKEQAASTAAAFLQVLGINESQMDRLHTVAAEDLLKAADQLRIAEKENIFQLFFQPALDPKTLPAEPEKAIAEGAASGIPLLIGTTRDEGYLFFTPDSDVHSQETLDAALEYLLGKPLAEKAADLYPRSLESQIHMMTDLLFWRPAVAYASAQSHYAPVWMYRFDWHPEKPPYNKAFHALELPFVFGNLDGLERMAKAEVTDEVKQLSHSIQTAWITFAKTGNPSTEAVNWPAYQEETRETLILDSKITIENDPESEKRQKLFPSKGEAALEHHHHHH
B4: unnamed (protein)
chain: MFGKLPFARASLAVGALLLSAAAVAQTNPYQRGPDPTVSSLEATRGPFSTSSFTVSRPSGYGAGTVYYPTNAGGKVGAIAVVPGYTARQSSINWWGPRLASHGFVVITIDTNSTLDQPSSRSSQQMAALRQVVSLAGTSSSPIYNKVDTARLGVMGWSMGGGGSLISAKNNPSLRAAAPQAPWAQESFSSVTVPTLIVSCENDSIAPNSSHSFPFYNQMTRNKKANLVINGGSHSCANSGNSDAGLIGKYGVAWMKRFMDDDTRYSKFLCGAEHQADLSKRAVEAYKENCPY
B5: unnamed (protein)
chain: MERTVVETRYGRLRGGTNESVFVWKGIPYAKAPVGERRFLPPEPPDAWDGVREAAAFGPVVMQPSDPIFSGLLGRMSEAPSEDGLYLNIWSPAADGKKRPVLFWIHGGAFLFGSGSSPWYDGTAFAKHGDVVVVTINYRMNVFGFLHLGDLFGEAYAQAGNLGILDQVAALRWVKENIEAFGGDPDNITIFGESAGAASVGVLLSLSEASGLFRRAILQSGSGALLLRSPKTAMAMTERILERAGIRPGDRGRLLSIPSEELLRSALSLGPGIMYGPVVDGRVLRRHPIEALCDGAASGIPILIGVTKDEYNLFTLTDPSWTKLGEKELLDRINREVGPVPEAAIRYYAETAEPSAPDWQTWLRIMTYRVFVEGMLRTADAQAAHGADVYMYRFDYETPVFGGQLKACHALELPFVFHNLHQPGVANFVGNRPEREAIANEMHYAWLSFARTGDPNGDHLPEAWPAYTSERKAAFVFSAASHVEDDPFGRERAAWMTRT
B6: unnamed (protein)
chain: MTHQIVTTQYGKIKGTTENGVHKWKGIPYAKPPVGQWRFKAPEPPEVWEDVLDATAYGPVCPQPSDLLSLSYAELPRQSEDCLYVNVFAPDTPSQNLPVMVWIHGGAFYLGAGSEPLYDGSKLAAQGEVIVVTLNYRLGPFGFLHMSSFDEAYSDNLGLLDQAAALKWVRENISAFGGDPNNVTVFGESAGGMSIAALLAMPAAKGLFQKAIMESGASRTMTKEQAASTAAAFLQVLGINESQMDRLHTVAAEDLLKAADQLRIAEKENIFQLFFQPALDPKTLPAEPEKAIAEGAASGIPLLIGTTRDEGYLFFTPDSDVHSQETLDAALEYLLGKPLAEKAADLYPRSLESQIHMMTDLLFWRPAVAYASAQSHYAPVWMYRFDWHPEKPPYNKAFHALELPFVFGNAEVTDEVKQLSHSIQTAWITFAKTGNPSTEAVNWPAYQEETRETLILDSKITIENDPESEKRQKLFPSKGEAALEHHHHHH

Substrate: BHET
Conditions: pH 8.5; 60 °C

| Protein | Km | kcat | kcat/Km |
| --- | --- | --- | --- |
| B1 | 39700 µM | 26.8 s⁻¹ | 674 M⁻¹ s⁻¹ |

Substrate: MHET
Conditions: pH 8.5; 60 °C

| Protein | Km | kcat | kcat/Km |
| --- | --- | --- | --- |
| B1 | 7330 µM | 0.31 s⁻¹ | 42.3 M⁻¹ s⁻¹ |

Substrate: p-NP-C4
Conditions: pH 8; 20 °C

| Protein | Km | kcat | kcat/Km |
| --- | --- | --- | --- |
| B1 | 312 µM | 304 s⁻¹ | 973000 M⁻¹ s⁻¹ |

Same assay, conditions: pH 8; 60 °C

| Protein | Km | kcat | kcat/Km |
| --- | --- | --- | --- |
| B1 | 505 µM | 742 s⁻¹ | 1.47e+06 M⁻¹ s⁻¹ |

Substrate: p-NP-C12
Conditions: pH 7; 37 °C

| Protein | Km | kcat | kcat/Km |
| --- | --- | --- | --- |
| B2 | 4300 µM | 1.4 s⁻¹ | 326 M⁻¹ s⁻¹ |

Substrate: p-NP-C14
Conditions: pH 7; 37 °C

| Protein | Km | kcat | kcat/Km |
| --- | --- | --- | --- |
| B2 | 1100 µM | 4.5 s⁻¹ | 4090 M⁻¹ s⁻¹ |

Substrate: p-NP-C16
Conditions: pH 7; 37 °C

| Protein | Km | kcat | kcat/Km |
| --- | --- | --- | --- |
| B2 | 2100 µM | 2.9 s⁻¹ | 1380 M⁻¹ s⁻¹ |

Substrate: BHET
Conditions: pH 7.5; 30 °C

| Protein | Km | kcat | kcat/Km |
| --- | --- | --- | --- |
| B3 | 100 µM | 37.7 s⁻¹ | 377000 M⁻¹ s⁻¹ |
| B6 | 80 µM | 102 s⁻¹ | 1.28e+06 M⁻¹ s⁻¹ |

Same assay, conditions: 48.5 °C

| Protein | kcat |
| --- | --- |
| B4 | 28.5 s⁻¹ |

Substrate: p-NP-C12
Conditions: pH 7.4; 60 °C

| Protein | Km | kcat | kcat/Km |
| --- | --- | --- | --- |
| B5 | 22800 µM | 0.993 s⁻¹ | 43.7 M⁻¹ s⁻¹ |

Source: the PETadex activity labels
